Assay results as given in paper PMC11714857, “PRDX5 and PRDX6 translocation and oligomerization in bull sperm: a response to cryopreservation-induced oxidative stress” (Cell Communication and Signaling : CCS, 2025).
Values joined by “and” are separate entries in the source; they are usually repeats but may differ in a detail not shown here. Equal entries are not always repeated.

Biological target: the molecule itself
Test: non-reducing SDS-PAGE with Western blot; native protein extracts of fresh or cryopreserved bull sperm, 30 ug protein, Laemmli buffer with 1.275% SDS and without 2-mercaptoethanol, 12% gels; compared with standard reducing SDS-PAGE; oligomer bands stronger after cryopreservation

B1: peroxiredoxin 6 (enzyme, bovine (endogenous in bull sperm), UniProt O77834 1-224, looked up)
chain: MPGGLLLGDEAPNFEANTTIGRIRFHDYLGDSWGILFSHPRDFTPVCTTELGRAAKLAPEFAKRNVKMIALSIDSVEDHLAWSKDINAYNGEEPTEKLPFPIIDDKNRDLAIQLGMLDPAEKDEKGMPVTARVVFIFGPDKKLKLSILYPATTGRNFDEILRVIISLQLTAEKRVATPVDWKNGDSVMVLPTIPEEEAKKLFPKGVFTKELPSGKKYLRYTPQP
notes: peroxiredoxin 6 (PRDX6), bovine, endogenous in bull sperm; runs as a single 25 kDa band in standard SDS-PAGE; The oligomers are disulfide-linked, as they appear only in non-reducing SDS-PAGE; also called PRDX6; source: endogenous, bull sperm lysate (native protein extraction; fresh or cryopreserved sperm)
With B1 the “stoichiometry N” value was 2 and 6.

B2: peroxiredoxin 5 (enzyme, Bos taurus (endogenous in bull sperm), UniProt Q9BGI1 58-219, looked up)
chain: MAPIKVGDAIPSVEVFEKEPGNKVNLAELFKGKKGVLFGLPGAFTPGCSKTHLPGFVEQADALKAKGIQVVACLTVNDVFVTEEWARAHKAEGKVRLLADPSGTFGKETDLLLDDSLLFLFGNHRLKRFSMVIEDGIVKSLNVEPDGTGLTCSLAPNILSQL
notes: peroxiredoxin 5 (PRDX5) from Bos taurus, endogenous in bull sperm; runs as a single 17.5 kDa band in standard SDS-PAGE; The oligomers are disulfide-linked, as they appear only in non-reducing SDS-PAGE; also called PRDX5; source: endogenous, bull sperm lysate (native protein extraction; fresh or cryopreserved sperm)
In the case of B2, the “stoichiometry N” value is reported as 6.
